Test results published in patent publication US7291458B2, “Leptin-mediated gene-induction” (Vlaams Interuniversitair Instituut Voor Biotechnologie VZW, priority 1998, dated 2007).

Columns and labels:
[1] = system: ob/ob mice; assay: Gene expression in leptin treated ob/ob mice (Northern blot); type: in vivo; details: 100 μg/mouse intraperitoneally, 5 hours after treatment
Procedure: Leptin deficient ob/ob mice were left untreated (−) or were treated with leptin (100 μg; +) intraperitoneally. Mice were killed five hours after treatment. Northern blot analysis of MT-II and Fnk in liver and PAP I expression in jejunum is shown. Hybridization with the mouse b-actin probe was used as a control and is shown below. Exposure times to BioMax MS films were 4 hours, 3 days, 4 hours and 8 hours for MT-II, Fnk, PAP I and b-actin respectively.
In order to assess the value of our in vitro model system for obesity, we investigated the regulation by leptin of a subset of the identified genes in vivo. Recombinant human leptin (R&D Systems) was administered intraperitoneally to leptin deficient ob/ob mice in a single dose of 100 μg leptin /mouse. Mice were killed by cervical dislocation 5 hours after treatment and total RNA was isolated from liver and jejunum. Northern blot analysis was performed using respectively MT-II, Fnk and PAP I as probe (FIG. 9).
Specific pathogen-free female C57BL/6J-Lep^ob mice, 9 weeks old at the beginning of the experiment further referred to as ob/ob were obtained from The Jackson Laboratory (Maine, USA). […] The endotoxin content of the antibody was 0.07 ng/mg protein, as assessed by a chromogenic Limulus amebocyte lysate assay (Coatest, Chromogenix, Stockholm, Sweden). […]

[2] = system: PC12-LR8 cells; assay: Northern blot analysis of gene induction in non-differentiated PC12-LR8 cells; type: cell-based, rat; details: cycloheximide from 30 minutes before induction for 8.5 hours; 24 hours post induction
Procedure: PC12-LR8 cells were treated with leptin (L), forskolin (F), or a combination of both (F/L) for the indicated length of time. Hybridization with the mouse b-actin probe was used as a control. NI stands for non-induced control cells. Sizes of transcripts are shown on the right. Exposure times to Biomax MS films were 5.5 days for LIP-I and LIP-II, and 1 day for the corresponding b-actin blot, all at −80° C.
FIG. 6A. Induction patterns of Reg I, HIP-I and peripherin after a 12 hours stimulation with forskolin (F), leptin (L), forskolin plus leptin (F/L), hyper-IL-6 (H) or forskolin plus hyper-IL-6 (F/H). Untreated cells were analyzed as a control (NI). Exposure times to BioMax MS films for Reg I, HIP-I and b-actin were 4 days, 5 days and 3 hours, respectively; and in a separate experiment for peripherin and b-actin, 16 hours and 2 days.
FIG. 6B Induction patterns of PAP I, PAP III, MT-II, Fnk, MRF-1, SOCS-3 and STAT-3 after stimulation with leptin (L) or hyper-IL-6 (H), compared to non-treated control cells (NI). In all cases stimulation was for 12 hours, with the exception of PAP III where stimulation was for 24 hours. b-actin hybridization patterns are shown as control. Exposure times to BioMax MS films at −80° C. were 16 hours for PAP I and 1 hour for b-actin; 4 days for PAP III and 1 hour for b-actin; 3 days for MT-II and Fnk, and2 days for b-actin; 3 days for MRF-1, 2.5 days for SOCS-3 and2 days for b-actin; and 16 hours for STAT-3 and 3 hours for b-actin.
FIG. 8A. Northern blot analysis of the immediate early response genes. PC12-LR8 cells were left untreated (NI: non induced), or were treated with forskolin (F), leptin (L) or a combination of both (F/L) for the indicated time points. Exposure times to BioMax MS films for the different transcripts were Fnk: 6 days, MT-II: 5 days, MRF-1: 6 days, SOCS-3: 14 hours, STAT-3: 14 hours, b-actin: 5 hours.
FIG. 8B. Immediate early response gene-set: early kinetics. PC12-LR8 cells were treated with leptin alone (L) or with a combination of leptin and forskolin (F/L) for the indicated length of time. Exposure time to BioMax MS films were: Fnk: 3 days, MT-II: 3 days, MRF-1: 3 days, SOCS-3: 2.5 days, STAT-3: 2.5 days, b-actin: 1 hour.
FIG. 8C. Northern blot analysis of the late target genes. PC12-LR8 cells were left untreated (NI), or were treated with forskolin (F), leptin (L) or a combination of both (F/L) for the indicated length of time. Exposure times to BioMax MS films were: Ann VIII: 6 days, PAP I: 14 hours, Squalene Epoxidase: 5 days, UGT: 5 days, b-actin: 14 hours.
PC12 cells were cultured in RPMI 1640 medium with glutamax-I (GibcoBRL) containing 10% heat-inactivated foetal calf serum (iFCS) and gentamycin (50 μg/ml). The cells were treated with medium alone or supplemented with 100 ng/ml of mouse leptin (R&D Systems), with forskolin (Sigma) at a concentration of 10 μM or with a combination both, unless otherwise indicated.
Total RNA was prepared from PC12 cells using RNeasy™ method (Qiagen). RNA (10 μg) was separated on a 1.5% agarose,6% formaldehyde gel, transferred to a nylon membrane (Zeta-Probe GT Genomic, Bio-Rad), and cross-linked using UV radiation. The filters were hybridized for one hour at 68° C. in ExpressHyb™ solution (Clontech) with [^32P]dCTP-labeled DNA-probes and washed 3 times with 2×SSC, 0.05% SDS at room temperature and twice in 0.1×SSC, 0.1% SDS at 50° C. Autoradiographs were obtained by exposing the blots to BioMax MS film (Kodak) with intensifying screens at −70° C. All Northern blots were normalized by hybridization using a b-actin probe.

[3] = system: rat Pancreatitis Associated Protein I promoter; assay: pGL3-rPAPluc reporter in PC12-LR8 cells; type: cell-based; details: rPAP I reporter
Procedure: (§1) FIGS. 1C and 1D. Analysis of b-NGF and forskolin co-stimulation on leptin-induced POMC luciferase (C) or rPAP luciferase activity (D). PC12-LR8 cells were transiently transfected with pGL3-hPOMCluc or pGL3-rPAPluc reporter and treated after two days with forskolin (F: 10 μM), leptin (L: 100 ng/ml), and rat b-NGF (N: 1 ng/ml) as indicated or were left untreated (NI). 24 hours after treatment, cells were lysed and assayed for luciferase activity.
(§2) Leptin responsiveness in PC12 cells was further investigated using a clone stably expressing the long isoform of the mouse leptin receptor (PC12-LR8, see below). After transfection of PC12-LR8 with a reporter construct based on the human POMC (proopiomelanocortin) promoter (pGL3-POMCluc) (FIG. 1 portion C), or a reporter construct based on the rat Pancreatitis Associated Protein I promoter (See below) (FIG. 1 portion D), leptin induced luciferase activity was measured. […]
(§3) Luciferase activity was measured in transfected cells by chemiluminescence. […] 70 μl of luciferase substrate buffer (20 mM Tricine; 1.07 mM (MgCO3)4Mg(OH)25H2O; 2.67 mM MgSO4; 0.1 mM EDTA; 33.3 mM DTT; 270 μM Coenzyme A (lithium salt); 470 μM Luciferin (Duchefa); 530 μM ATP, final pH 7.8) was added to 100 μl of cell lysate and measured for 5 seconds by TopCount.NXT Chemiluminescence Counter (Packard).

[4] = system: human POMC (proopiomelanocortin) promoter; assay: pGL3-POMCluc reporter in PC12-LR8 cells; type: cell-based, rat
Procedure: as §1, §2, §3

Molecule: Recombinant human leptin: Recombinant human leptin (R&D Systems) administered intraperitoneally to mice
- MT-II and Fnk mRNA expression in liver [1]: clear induction
- expression of PAP I in jejunum [1]: downregulated

Molecule: C[C@@H]1C[C@@H]([C@H](O)CC2CC(=O)NC(=O)C2)C(=O)[C@@H](C)C1 [cycloheximide, reference compound]
- rPAP I and Annexin VIII mRNA expression [2]: strongly reduced expression

B1: b-NGF: recombinant rat b-nerve growth factor (protein, UniProt P25427 122-241, looked up)
Beta-nerve growth factor: SSTHPVFHMGEFSVCDSVSVWVGDKTTATDIKGKEVTVLGEVNINNSVFKQYFFETKCRAPNPVESGCRGIDSKHWNSYCTTTHTFVKALTTDDKQAAWRFIRIDTACVCVLSRKAARRG
- co-stimulation of leptin induced luciferase activity ([3]; b-NGF 1 ng/ml): mimicked
- combined b-NGF and forskolin effects on leptin induced luciferase activity [3]: additive
- combined b-NGF and forskolin effects on leptin induced luciferase activity [4]: additive
- co-stimulation of leptin induced luciferase activity ([4]; b-NGF 1 ng/ml): mimicked
